This is an account of results in patent US6835378B2, “Method and compositions for inhibiting thrombin-induced coagulation” (The Texas A&M University System University, priority 2001, dated 2004).

The experiment addresses T1, immobilized Fg (Homo sapiens, UniProt P02675).
T1 construct: purchased Enzyme Research Labs
T1 sequence (P02675 31-491): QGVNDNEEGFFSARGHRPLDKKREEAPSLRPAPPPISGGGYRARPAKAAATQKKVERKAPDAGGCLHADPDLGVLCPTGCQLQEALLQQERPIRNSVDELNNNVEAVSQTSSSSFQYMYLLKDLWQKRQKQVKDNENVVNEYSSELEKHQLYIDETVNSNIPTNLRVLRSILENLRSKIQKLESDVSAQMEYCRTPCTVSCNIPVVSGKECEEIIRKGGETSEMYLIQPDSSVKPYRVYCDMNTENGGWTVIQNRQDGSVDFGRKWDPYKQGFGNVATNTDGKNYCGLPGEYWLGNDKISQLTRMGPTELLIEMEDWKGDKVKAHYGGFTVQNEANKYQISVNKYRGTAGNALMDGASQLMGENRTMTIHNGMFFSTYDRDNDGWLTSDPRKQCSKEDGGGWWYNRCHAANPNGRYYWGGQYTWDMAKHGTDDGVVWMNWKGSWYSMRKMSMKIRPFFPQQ
T1 sequence (P02671 20-629 partner limits assumed): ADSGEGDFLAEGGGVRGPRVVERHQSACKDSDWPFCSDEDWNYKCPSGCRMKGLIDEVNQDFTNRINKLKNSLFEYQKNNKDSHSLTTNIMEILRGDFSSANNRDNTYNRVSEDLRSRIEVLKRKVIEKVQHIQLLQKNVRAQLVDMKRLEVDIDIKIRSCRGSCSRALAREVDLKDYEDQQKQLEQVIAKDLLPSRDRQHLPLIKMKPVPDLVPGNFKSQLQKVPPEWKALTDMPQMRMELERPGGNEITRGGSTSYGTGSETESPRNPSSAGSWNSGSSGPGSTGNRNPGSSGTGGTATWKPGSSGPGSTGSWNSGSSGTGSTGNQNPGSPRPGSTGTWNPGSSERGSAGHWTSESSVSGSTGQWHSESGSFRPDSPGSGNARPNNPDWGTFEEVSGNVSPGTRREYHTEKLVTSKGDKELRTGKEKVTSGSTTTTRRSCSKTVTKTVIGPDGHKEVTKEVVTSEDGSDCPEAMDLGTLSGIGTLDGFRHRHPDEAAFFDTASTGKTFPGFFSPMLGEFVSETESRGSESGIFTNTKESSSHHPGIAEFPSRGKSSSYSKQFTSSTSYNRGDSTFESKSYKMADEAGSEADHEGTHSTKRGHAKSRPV
T1 sequence (P02679 27-433 partner limits assumed): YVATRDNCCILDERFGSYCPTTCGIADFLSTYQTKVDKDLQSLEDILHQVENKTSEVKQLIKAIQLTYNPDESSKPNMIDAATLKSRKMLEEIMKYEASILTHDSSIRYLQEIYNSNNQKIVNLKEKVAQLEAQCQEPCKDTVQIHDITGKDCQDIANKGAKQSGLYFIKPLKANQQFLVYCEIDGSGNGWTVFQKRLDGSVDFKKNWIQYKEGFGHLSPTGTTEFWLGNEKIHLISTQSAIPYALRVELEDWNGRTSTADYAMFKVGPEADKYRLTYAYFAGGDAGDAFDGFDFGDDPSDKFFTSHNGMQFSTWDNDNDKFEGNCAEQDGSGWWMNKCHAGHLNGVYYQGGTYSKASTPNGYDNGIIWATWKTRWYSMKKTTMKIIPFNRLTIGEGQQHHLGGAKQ
The experiment can be described thus: ELISA: rSdrG(50-597) binding to immobilized Fg. On the procedure: ELISA—Microtiter plates (Immulon 4, Dynatech Laboratories Inc.) were coated with 1 μg of Fg (Enzyme Research Labs) in PBS, pH 7.5 for 18 h at 4° C. Plates were washed three times with PBS, 0.05% Tween 20 (PBST) and blocked with 1% (w/v) bovine serum albumin (BSA) for 1 h at room temperature. Plates were washed three times with PBST and rSdrG(50-597), diluted into PBS, was added to the wells and the plate was incubated for 1 h at room temperature. Plates were washed three times with PBST and bound rSdrG(50-597) was detected by adding a 1:2000 dilution of an anti-His-tag mAb (Clontech) in PBST, 0.1% BSA. Plates were incubated for 1 h at room temperature and then washed three times with PBST. A 1:2000 dilution of goat anti-mouse alkaline phosphatase (AP)-conjugated polyclonal antibodies (Bio-Rad) in PBST, 0.1% BSA were added to the wells and the plate was incubated for 1 h at room temperature. Plates were washed three times with PBST and developed with p-nitrophenyl phosphate (Sigma) in 1 M diethanolamine, 0.5 mM MgCl2, pH 9.0 at room temperature for ˜30 min. Plates were read at 405 nm using an ELISA plate reader (Thermomax microplate reader, Molecular Devices).

B1: rSdrG(50-597): recombinant His-tagged A region (residues 50-597) of SdrG, a fibrinogen-binding MSCRAMM from S. epidermidis (protein)
chain: HHHHHHAEENTVQDVKDSNMDDELSDSNDQSSNEEKNDVINNSQSINTDDDNQIKKEETNSNDAIENRSKDITQSTTNVDENEATFLQKTPQDNTQLKEEVVKEPSSVESSNSSMDTAQQPSHTTINSEASIQTSDNEENSRVSDFANSKIIESNTESNKEENTIEQPNKVREDSITSQPSSYKNIDEKISNQDELLNLPINEYENKVRPLSTTSAQPSSKRVTVNQLAAEQGSNVNHLIKVTDQSITEGYDDSDGIIKAHDAENLIYDVTFEVDDKVKSGDTMTVNIDKNTVPSDLTDSFAIPKIKDNSGEIIATGTYDNTNKQITYTFTDYVDKYENIKAHLKLTSYIDKSKVPNNNTKLDVEYKTALSSVNKTITVEYQKPNENRTANLQSMFTNIDTKNHTVEQTIYINPLRYSAKETNVNISGNGDEGSTIIDDSTIIKVYKVGDNQNLPDSNRIYDYSEYEDVTNDDYAQLGNNNDVNINFGNIDSPYIIKVISKYDPNKDDYTTIQQTVTMQTTINEYTGEFRTASYDNTIAFSTSSGQGQGDLPPE
On to B1, for which the “binding to immobilized Fg” value is on record as “bound immobilized Fg”.
